Molecular target: Toxoplasma gondii major surface antigen 1 (SAG1) (Toxoplasma gondii, RH strain, UniProt P13664)
Test: far-Western, overlay or dot blot

Sequence of Toxoplasma gondii major surface antigen 1 (SAG1) (P13664 48-336): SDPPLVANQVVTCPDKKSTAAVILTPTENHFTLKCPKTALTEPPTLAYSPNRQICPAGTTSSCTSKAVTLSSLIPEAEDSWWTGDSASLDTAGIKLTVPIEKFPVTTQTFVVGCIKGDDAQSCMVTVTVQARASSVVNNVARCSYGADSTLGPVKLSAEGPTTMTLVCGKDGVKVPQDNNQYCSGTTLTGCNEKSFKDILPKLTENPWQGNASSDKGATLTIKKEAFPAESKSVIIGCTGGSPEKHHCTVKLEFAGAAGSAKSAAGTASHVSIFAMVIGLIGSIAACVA

B1: scFvSG15(VLT8P)-AP conjugate (scFvSG15-AP with T8P in FR-1 of the kappa VL) (scFv, V domains shown)
VH: QVQLQQSGAELVRPGVSVKISCKGSGYTFTDYGMHWVKQSHAKSLEWIGIISTYSGDASYNQKFKGKATMTVDKSSSTAYMELARLTSEDSAIYYCARSSTWYYFDYWGQGTTLTVSS
VL: DIQVTQTPSSLSASLGDRVTISCRASQDISNYLNWYQQKPDGTVKLLIYYTSRLHSGVPSRFSGSGSGTDYSLTISNLEQEDIATYFCQQGNTLPYTFGGGTKLEIK
**Q.** Does B1 bind?
**A.** Result: binds
